Target: PlyCB R66E mutant (streptococcal bacteriophage (C1)) (UniProt Q7Y3F3)
Experiment: SEC

stoichiometry N: 8
Substance: PlyCB R66E mutant (from UniProt Q7Y3F3 1-72) (natural protein)

Reference: paper PMC8555655
